Test results taken from patent US20250215083A1 (JIANGSU HENGRUI PHARMACEUTICALS, published 2025).
Where a chain is given by its changes, count along the chain named. Numbers in names are those of the source.

B1: F11-13 (bispecific antibody)
heavy: not shown
light: DIQMTQSPSSVSASVGDRVTITCKASQNVGSNVAWYQQKPGKAPKALIYSASYRYSGVPSRFSGSGSGTDFTLTISSLQPEDFATYYCHQYNSYPPTFGQGTKLEIKRTVAAPSVFIFPPSDEQLKSGTASVVCLLNNFYPREAKVQWKVDNALQSGNSQESVTEQDSKDSTYSLSSTLTLSKADYEKHKVYACEVTHQGLSSPVTKSFNRGEC
notes: formula 11
B2: F11-16 (bispecific antibody)
heavy: not shown
light: B1 light with A43S, T85E
notes: formula 11
B3: F11-15 (bispecific antibody)
heavy: not shown
light: B1 light with A43S, T85E
notes: formula 11
B4: F11-14 (bispecific antibody)
heavy: not shown
light: B1 light
notes: formula 11
B5: F4-4 (bispecific antibody)
heavy 1: not shown
light 1: not shown
heavy 2: EVQLVESGGGLVQPGGSLRLSCAASGFTFTDYYLSWVKQAPGKGLEWVAFIRNRAKGYTTEYSASVKGRFTISRDNSKNSLYLQMNSLRAEDTAVYYCARMGGKGWHFDVWGQGTTVTVSSASTKGPSVFPLAPSSKSTSGGTAALGCLVKDYFPEPVTVSWNSGALTSGVHTFPAVLQSSGLYSLSSVVTVPSSSLGTQTYICNVNHKPSNTKVDKKVEPKSCDKTHTCPPCPAPEAAGGPSVFLFPPKPKDTLMISRTPEVTCVVVDVSHEDPEVKFNWYVDGVEVHNAKTKPREEQYNSTYRVVSVLTVLHQDWLNGKEYKCKVSNKALPAPIEKTISKAKGQPREPQVCTLPPSRDELTKNQVSLSCAVKGFYPSDIAVEWESNGQPENNYKTTPPVLDSDGSFFLVSKLTVDKSRWQQGNVFSCSVMHEALHNHYTQKSLSLSPGK
light 2: DVVMTQSPLSLPVTPGEPASISCRSSQSIVHSNRNTYLEWYLQKPGQSPKLLIYKVSNRFSGVPDRFFGSGSGTDFTLKINRVEAEDVGVYYCFQGSHVPFTFGGGTKVEIKRTVAAPSVFIFPPSDEQLKSGTASVVCLLNNFYPREAKVQWKVDNALQSGNSQESVTEQDSKDSTYSLSSTLTLSKADYEKHKVYACEVTHQGLSSPVTKSFNRGEC
notes: formula 4
B6: F4-9 (bispecific antibody)
heavy 1: not shown
light 1: not shown
heavy 2: EVKLVESGGGLVQPGDFLSLSCAASGFTFTDYYLSWVRQPPGKALEWLAFIRNRAKGYTTEYSASVKGRFTISRDNSQSILYLQMNVLRAEDSATYYCARMGGKGWHFDVWGTGTTVTVSSASTKGPSVFPLAPSSKSTSGGTAALGCLVKDYFPEPVTVSWNSGALTSGVHTFPAVLQSSGLYSLSSVVTVPSSSLGTQTYICNVNHKPSNTKVDKKVEPKSCDKTHTCPPCPAPEAAGGPSVFLFPPKPKDTLMISRTPEVTCVVVDVSHEDPEVKFNWYVDGVEVHNAKTKPREEQYNSTYRVVSVLTVLHQDWLNGKEYKCKVSNKALPAPIEKTISKAKGQPREPQVCTLPPSRDELTKNQVSLSCAVKGFYPSDIAVEWESNGQPENNYKTTPPVLDSDGSFFLVSKLTVDKSRWQQGNVFSCSVMHEALHNHYTQKSLSLSPGK
light 2: B5 light 2 with V3L, T14S, P15L, E17D, P18Q, R34G, V88L, V109L
notes: formula 4 with Chi-45 variable regions
B7: F4-5 (bispecific antibody)
heavy 1: not shown
light 1: not shown
heavy 2: B5 heavy 2 with S77A, K78Q
light 2: B5 light 2
notes: formula 4
B8: F11-7 (bispecific antibody)
heavy: not shown
light: DVVLTQSPLSLPVTLGQPASISCKSSQSLLHSNGKTYLNWLLQRPGQSPRRLIYLVSKLDSGVPDRFSGSGSGTDFTLKISRVEAEDVGVYYCAQGTHFPRTFGGGTKVEIKRTVAAPSVFIFPPSDEQLKSGTASVVCLLNNFYPREAKVQWKVDNALQSGNSQESVTEQDSKDSTYSLSSTLTLSKADYEKHKVYACEVTHQGLSSPVTKSFNRGEC
notes: formula 11
B9: F11-8 (bispecific antibody)
heavy: not shown
light: B8 light with N33S
notes: formula 11
B10: F11-10 (bispecific antibody)
heavy: not shown
light: B8 light
notes: formula 11
B11: F11-9 (bispecific antibody)
heavy: not shown
light: B8 light with N33T
notes: formula 11
B12: F11-11 (bispecific antibody)
heavy: not shown
light: B8 light with N33S
notes: formula 11
B13: F11-12 (bispecific antibody)
heavy: not shown
light: B8 light with N33T
notes: formula 11
B14: F11-2 (bispecific antibody)
heavy: not shown
light: DVVMTQTPLSLSVTPGQPASISCRSSQSLVHSSGNTYLYWYLQKPGQSPKLLIYKVSNRFSGVPDRFSGSGSGTDFTLKISRVEAEDVGVYYCSQSTHVPPLTFGQGTKLEIKRTVAAPSVFIFPPSDEQLKSGTASVVCLLNNFYPREAKVQWKVDNALQSGNSQESVTEQDSKDSTYSLSSTLTLSKADYEKHKVYACEVTHQGLSSPVTKSFNRGEC
notes: formula 11
B15: F11-6 (bispecific antibody)
heavy: not shown
light: B14 light with S33Q
notes: formula 11
B16: F11-4 (bispecific antibody)
heavy: not shown
light: B14 light with V2I, S33N, K50Q
notes: formula 11
B17: F11-1 (bispecific antibody)
heavy: not shown
light: B14 light with V2I, S33N, K50Q
notes: formula 11, GPRC5D x CD3 (S107E scFv)
B18: F11-5 (bispecific antibody)
heavy: not shown
light: B14 light
notes: formula 11
B19: F11-3 (bispecific antibody)
heavy: not shown
light: B14 light with S33Q
notes: formula 11
B20: F2-4 (bispecific antibody)
heavy 1: not shown
light 1: B5 light 2
heavy 2: not shown
light 2: not shown
notes: formula 2
B21: PL-1 (bispecific antibody)
chain 1: not shown
chain 2: DIVLTQSPASLAVSPGQRATITCRASESVSIHGTHLMHWYQQKPGQPPKLLIYAASKLESGVPARFSGSGSGTDFTLTINPVEAEDTANYYCQQSFEDPLTFGQGTKLEIKGGGGSGIPPKIECLPIDISIDEGKVLTVASAFTGEPTPEVTWSTGGRKIHSQEQGRFHIENTDDLTTLIIKDVQKQDGGLYTLTLRNEFGSDSATVNIHIRSI
chain 3: not shown
chain 4: not shown
B22: PL-3 (bispecific antibody)
chain 1: not shown
chain 2: B21 chain 2 with V136C, L176S, I180T
chain 3: not shown
chain 4: not shown
B23: PL-2 (bispecific antibody)
chain 1: not shown
chain 2: B21 chain 2 with L176S, I180T
chain 3: not shown
chain 4: not shown

The binders below were run against T1, human GPRC5D (human, UniProt Q9NZD1 1-345) (assay: FACS, MM.1R cells).
T1 construct: whole, on cells; also called membrane surface GPRC5D
T1 sequence (Q9NZD1 whole entry): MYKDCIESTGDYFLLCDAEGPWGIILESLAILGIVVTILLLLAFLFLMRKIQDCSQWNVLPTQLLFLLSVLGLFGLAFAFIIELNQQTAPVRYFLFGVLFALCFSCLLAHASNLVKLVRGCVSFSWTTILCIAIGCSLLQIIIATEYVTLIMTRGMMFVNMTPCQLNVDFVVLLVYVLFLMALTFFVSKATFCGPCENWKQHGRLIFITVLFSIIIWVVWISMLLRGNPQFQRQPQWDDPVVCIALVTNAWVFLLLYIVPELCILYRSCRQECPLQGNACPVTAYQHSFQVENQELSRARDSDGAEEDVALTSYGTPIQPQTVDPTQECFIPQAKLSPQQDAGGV
Procedure: (§1) To test the capacity of the GPRC5D/CD3 bispecific antibodies of the present disclosure to bind to GPRC5D, a flow cytometry assay was used in this test example to measure the capacity of the GPRC5D/CD3 bispecific antibodies to bind to the human multiple myeloma cell line MM.1R (ATCC® CRL-2975), which expresses GPRC5D, and to a stably transfected cell strain CHOK1-cynoGPRC5D, which expresses cynomolgus monkey GPRC5D. The specific procedure was as follows: The cells described above were cultured in complete culture medium containing 10% FBS, incubated in a 37° C., 5% CO₂ incubator for 2 days, and added to a cell plate at 1×10⁵ cells/well. The plate was centrifuged at 300 g for 5 min and washed once with 1% BSA. The antibodies were serially diluted to 8 concentrations and added to the cell plate at 100 μL/well. The plate was incubated at 4° C. for 1 h and washed once with 1% BSA. […] The plate was washed three times with 1% BSA, PBS was added at 100 μL/well, and plate reading was performed.
B1 showed an EC50 of 1.05 nM and a Max of 718. Binder B2 has an EC50 of 0.94 nM and a Max of 678. B3 showed an EC50 of 0.89 nM and a Max of 693. Work on B4 yielded an EC50 of 0.88 nM and a Max of 633. Work on B5 yielded an EC50 of 12.1 nM and a Max of 13600. B6 was tested, and the EC50 was 19.2 nM and the Max was 13200. Binder B7 has an EC50 of 12.8 nM and a Max of 13400. B8 showed an EC50 of 1.89 nM and a Max of 2020. With B9 the EC50 was 2 nM and the Max was 1910. Work on B10 yielded an EC50 of 1.29 nM and a Max of 1470. Binder B11 has an EC50 of 2.16 nM and a Max of 1950. Binder B12 has an EC50 of 1.7 nM and a Max of 1560. With B13 the EC50 was 1.93 nM and the Max was 1600. B14 was tested, and the EC50 was 0.35 nM and the Max was 1.63. With B15 the EC50 was 0.23 nM and the Max was 1.6. Binder B16 has an EC50 of 0.39 nM and a Max of 1.66. In the case of B17, the EC50 is reported as 0.44 nM and the Max is reported as 1.76. B18 gave an EC50 of 0.34 nM and a Max of 1.6. In the case of B19, the EC50 is reported as 0.3 nM and the Max is reported as 1.8.

Target: T1, human GPRC5D
Assay: FACS, MM.1R cells
Remark: another data set of the same source
Procedure: as §1
B1 gave an EC50 of 1.05 nM. Work on B2 yielded an EC50 of 0.94 nM. In the case of B3, the EC50 is reported as 0.89 nM. For B4, the EC50 was 0.88 nM. B5 was tested, and the EC50 was 12.1 nM. B20 was tested, and the EC50 was 7.56 nM. With B7 the EC50 was 12.8 nM. B8 gave an EC50 of 1.89 nM. B9 was tested, and the EC50 was 2 nM. B10 was tested, and the EC50 was 1.29 nM. In the case of B11, the EC50 is reported as 2.16 nM. Binder B12 has an EC50 of 1.7 nM. With B13 the EC50 was 1.93 nM. With B14 the EC50 was 0.35 nM. B15 showed an EC50 of 0.23 nM. B16 gave an EC50 of 0.39 nM. Work on B17 yielded an EC50 of 0.44 nM. Work on B18 yielded an EC50 of 0.34 nM. B19 was tested, and the EC50 was 0.3 nM.

Each binder was assayed against T2, cynomolgus monkey GPRC5D (cynomolgus monkey) (assay: FACS, CHOK1-cynoGPRC5D cells).
T2 construct: whole, on cells; also called CynoGPRC5D; cynoGPRC5D
Procedure: as §1
B1 was tested, and the EC50 was 2.21 nM and the Max was 28100. In the case of B2, the EC50 is reported as 2.95 nM and the Max is reported as 25200. B3 gave an EC50 of 1.45 nM and a Max of 24000. In the case of B4, the EC50 is reported as 1.86 nM and the Max is reported as 25800. B5 was tested, and the EC50 was 3.15 nM and the Max was 74900. B6 was tested, and the EC50 was 4.01 nM and the Max was 83700. B7 showed an EC50 of 3.16 nM and a Max of 71300. Work on B14 yielded an EC50 of 0.47 nM and a Max of 1.09. B15 was tested, and the EC50 was 0.32 nM and the Max was 1.35. B16 showed an EC50 of 0.28 nM and a Max of 1.27. B17 gave an EC50 of 0.36 nM and a Max of 1.31. B18 was tested, and the EC50 was 0.41 nM and the Max was 1.12. B19 was tested, and the EC50 was 0.27 nM and the Max was 1.45.

Target: T2, cynomolgus monkey GPRC5D
Assay: FACS, CHOK1-cynoGPRC5D cells
Remark: another data set of the same source
Procedure: as §1
Binder B1 has an EC50 of 2.21 nM. With B2 the EC50 was 2.95 nM. B3 showed an EC50 of 1.45 nM. B4 gave an EC50 of 1.86 nM. Binder B5 has an EC50 of 3.15 nM. B20 showed an EC50 of 3.95 nM. B7 gave an EC50 of 3.16 nM. B8 was tested, and the EC50 was 0.76 nM. Work on B9 yielded an EC50 of 0.36 nM. B10 was tested, and the EC50 was 0.4 nM. Binder B11 has an EC50 of 0.17 nM. With B12 the EC50 was 1.01 nM. In the case of B13, the EC50 is reported as 1.6 nM. Work on B14 yielded an EC50 of 0.47 nM. In the case of B15, the EC50 is reported as 0.32 nM. Binder B16 has an EC50 of 0.28 nM. For B17, the EC50 was 0.36 nM. B18 gave an EC50 of 0.42 nM. For B19, the EC50 was 0.27 nM.

The binders below were run against T3, hPDL1 (human, UniProt Q9NZQ7 19-238) (assay: ELISA per WO2021139758 Test Example 4).
T3 construct: purchased from Sino biology
T3 sequence (Q9NZQ7 19-238 limits assumed): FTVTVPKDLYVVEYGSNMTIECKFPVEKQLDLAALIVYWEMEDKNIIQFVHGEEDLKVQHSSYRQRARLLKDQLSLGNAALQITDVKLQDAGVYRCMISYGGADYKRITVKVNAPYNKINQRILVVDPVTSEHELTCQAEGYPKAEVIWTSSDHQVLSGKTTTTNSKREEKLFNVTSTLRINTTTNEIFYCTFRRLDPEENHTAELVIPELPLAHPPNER
In the case of B21, the EC50 is reported as 1.6 nM. For B22, the EC50 was 0.6 nM. B23 was tested, and the EC50 was 0.5 nM.

Each binder was assayed against T4, hCTLA4 (human, UniProt P16410 36-161) (assay: ELISA per WO2021139758 Test Example 4).
T4 construct: purchased from Sino biology
T4 sequence (P16410 36-161 limits assumed): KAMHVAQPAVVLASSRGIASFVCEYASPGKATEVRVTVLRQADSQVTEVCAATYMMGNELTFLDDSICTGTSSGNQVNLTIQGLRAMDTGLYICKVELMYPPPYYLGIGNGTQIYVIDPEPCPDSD
B21 showed an EC50 of 16.5 nM. B22 showed an EC50 of 7.9 nM. For B23, the EC50 was 8 nM.
